T1: Cyclised HNE substrate lacking the tyrosine residue (CQESIRLPGC attached to the scaffold)
T1 chain: CQESIRLPGC

T2: Cyclised MOL488 peptide (YCQESIRLPGC attached to the scaffold derived from 1,3-dibromomethylbenzene)
T2 chain: YCQESIRLPGC

B1: MMP 1 (Enzo) (protein)
chain: FVLTEGNPRWEQTHLTYRIENYTPDLPRADVDHAIEKAFQLWSNVTPLTFTKVSEGQADIMISFVRGDHRDNSPFDGPGGNLAHAFQPGPGIGGDAHFDEDERWTNNFREYNLHRVAAHELGHSLGLSHSTDIGALMYPSYTFSGDVQLAQDDIDGIQAIYGRSQNPVQP
B2: MMP 12 (Enzo) (protein)
chain: FREMPGGPVWRKHYITYRINNYTPDMNREDVDYAIRKAFQVWSNVTPLKFSKINTGMADILVVFARGAHGDFHAFDGKGGILAHAFGPGSGIGGDAHFDEDEFWTTHSGGTNLFLTAVHEIGHSLGLGHSSDPKAVMFPTYKYVDINTFRLSADDIRGIQSLYG
B3: MMP 7 (Enzo) (protein)
chain: YSLFPNSPKWTSKVVTYRIVSYTRDLPHITVDRLVSKALNMWGKEIPLHFRKVVWGTADIMIGFARGAHGDSYPFDGPGNTLAHAFAPGTGLGGDAHFDEDERWTDGSSLGINFLYAATHELGHSLGMGHSSDPNAVMYPTYGNGDPQNFKLSQDDIKGIQKLYGKRSNSRKK
B4: MMP 11 (Enzo) (protein)
chain: FVLSGGRWEKTDLTYRILRFPWQLVQEQVRQTMAEALKVWSDVTPLTFTEVHEGRADIMIDFARYWHGDDLPFDGPGGILAHAFFPKTHREGDVHFDYDETWTIGDDQGTDLLQVAAHEFGHVLGLQHTTAAKALMSAFYTFRYPLSLSPDDCRGVQHLYGQPWPTVTSRTPA
B5: Human Neutrophil elastase (Leeblo Solutions inc.) (protein)
chain: IVGGRRARPHAWPFMVSLQLRGGHFCGATLIAPNFVMSAAHCVANVNVRAVRVVLGAHNLSRREPTRQVFAVQRIFENGYDPVNLLNDIVILQLNGSATINANVQVAQLPAQGRRLGNGVQCLAMGWGLLGRNRGIASVLQELNVTVVTSLCRRSNVCTLVRGRQAGVCFGDSGSPLVCNGLIHGIASFVRGGCASGLYPDAFAPVAQFVNWIDSIIQ

Key:
[1] = target: Indicator molecule containing the cleavable sequence GPQGIFGQ with a terminal biotin group connected via a polyethylene glycol spacer/linker (intact)
[2] = target: T1, Cyclised HNE substrate lacking the …
[3] = target: T2, Cyclised MOL488 peptide (YCQESIRLPGC …)

Protein | Reader value (lateral flow, CF1522 gold) at 0.5 µg/ml MMP [1] | HPLC analysis of elastase digestion [2] | mass spectrometry of substrate and hydrolysed product [2] | preparative enzymatic cleavage followed by HPLC and mass spectrometry [3]
B1 | 478 reader units |  |  | 
B2 | 1250 reader units |  |  | 
B3 | 373 reader units |  |  | 
B4 | 280 reader units |  |  | 
B5 |  | a single cleavage product results from HNE activity on the peptide | the substrate is cleaved at a single site and that the substrate otherwise remains intact | A new product peak evolved over time
